Laboratory results: the nanobody polyreactivity screen of Harvey et al. (2022)

Assay: yeast display, Sf9 membrane polyspecificity reagent, FACS + sequencing; frameworks hold sequencing errors
How it was run: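 Genes from sorted yeast were amplified by colony PCR, read by MiSeq 2 × 250 sequencing and filtered on CDR length. These cells carried a synthetic nanobody library in Saccharomyces cerevisiae BJ5465 and were sorted by FACS into low and high (top ~1%) gates on anti-HA and streptavidin fluorescence. Polyreactivity is labelled according to the gate of origin.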

Row | Sequence | polyreactivity (PSR sort gate)
1 | QVKLVESGGGLVQARGSLRLSCAASGRIFTIYAKGWYRPAPGKERELVAAITRGGNTNYADSVKGRFTISRDNAKNTVYLQMNSLKPEDTAVYNCAARANVYTKKRDYWGQGTQVTVSS | high polyreactivity
2 | QVKLVESGRALVQAGCSLPLSCAASGRIFTRYAMGWYRQAPGKERELVAAISYGGGGTYYADSVKGSFTISRDNAKNTVYVQMNSLKPEDTAVYYCATDDPLSQINEQGMDYWGQGTQVTVSS | low polyreactivity
3 | QVKLVESGRGLVQAGCSLRITCAASGGTLDNNAMGRYRQAPGKERELVAAISSSGSRTYYADSVKGRFTISRDHAKNSVYLQMNSLKPEDTAVYYCAARRYVRRYYWGQGTQVTVSS | high polyreactivity
4 | QVKLVETGGGLVQAGGSLRLSCAASGITFAYYAMGWYRQAPGKERELVARISRRGGSTYYADSVKGRFTISRDNAKNNVYLQMNSLKPEDTAVYYCAARVVVPKPYVDGDYWGEGTQVTVSS | high polyreactivity
5 | QVLLEESVGGLDQAGGSLRLSCAASGFNFQTNAMGRYRQAPGKEREFVAAISDSGGSTNYADSVKGRFTISRDNAKNTGYLQMNSLKPEDSAVYYCATSFAVYDYDYWGQGTQVTVSS | low polyreactivity
6 | QVLLLESGGGVVQAGGSHRLRCAASGRIFCTNTMGWYRQAPGKERELVAVISSSGDSTYYADSVKGRFTISRDNAKNTVYLQINSLKPEDTAVYYCAKGNNWISRLMDYWGQGTQVTVSS | low polyreactivity
7 | QVLLQESGGGLVQAGGSLRLCCSASGYISGDQFMGWYRQAPGKEREFVAGIGNGTNTNYADSVKGRFTTSRDNEKNTVYLQMNIRKPEDTAVYYCAADPSDGSTLAYWGQGTQVTVSS | high polyreactivity
8 | QVLLQESGGLVQAGCSLRMSCAASGSISTALSMGWYRQAPGKERELVATISDGASTNYADSVKGRFTISRVNAKNTVYLQMNSLKPEDTEVYYCAAQSQYRPDHRYWGQGTQVTVSS | high polyreactivity
9 | QVLLVESGGGLFQAGGRLRVSCAASGSTLLRYAMGWYRQAPGKERELVAAISGTGSRTYYADSVKGRFTISRDNAKNTVYLKMISLNPEDTAVYYCYACPYRLTEIDYWGQGTPVTVSS | high polyreactivity
10 | QVLLVESGGGLVQAAGSLRLSSAASGRIFASYPLGWYRQAPGKERELVAAISKSGGRTYYADSVKGRFTISRDNAKNTVYVQMNSLKPVDTAVYDCAAFFWTRSGTPNFDYWGQGTQVTVSS | high polyreactivity
11 | QVLLVESGGGLVQAGGSLRLSCAASGFIFDVYAMGWYRQAPGKERELVAAISSSGGRKYYADSVKGRFTISRDNAKNTVYLQMNSLKPEDTAVYYCAAKTHSRTKVYTADYWGQGTQVTVSS | high polyreactivity
12 | QVLLVESGGGLVQAGGSLRLSCAASGITFAYYVMGWYRQAPGKERELVAAINWSGGSTYYADSVKGRFTISRDNAKNTVYLQMNSLKPEDPAVYYCAADWSTWYGEKFYWGQGTQVTVSS | high polyreactivity
13 | QVLLVESGGGLVQAGGSLRLSCAASGRILYHYAMGWYRQAPGKERELVAAITRGGGTNYADSVKGRFTISRDNAKNTVYLQMNSLKPEDTAVYYCNADRFIVTRSRRGDYWGQGTQVTVSS | low polyreactivity
14 | QVLLVESGGGLVQAGGSLRLSCAASGRTFGTNGMGWYRQAPGKERELVAVITWTGGSTYYADSVKGRFTITRDNEKNTVYLQMNSLKPEDTAVYYCAAKYSHLGYNYWGQGTQVTVSS | high polyreactivity
15 | QVLLVESGGGLVQAGGSLRLSCAASGSILRTYAMGWYRQAPGKERELVAAITWSGGSTRYADSVKGRFTISRDNAKNTVYLQMNSLKPEDTAVYYCNARYRVYSYALYKYGYWGQGTQVTVSS | high polyreactivity
16 | QVLLVESGGGLVQAGGSLRLSCAASGSTFYYYGMGWYRQAPGKEREFVAAISWGGGSTRYADSVKGRITISRDNAKNTVYLQMNSLKPEDTAVYYCAARYPHYDYYYWGQGTQVTVSS | high polyreactivity

Row | Sequence | polyreactivity (PSR sort gate)
17 | QVLLVESGGGLVQAGGSLRLSCAASGYIFNRYVMGWTIQAPGKERELVAAIYIRGGSTFYSDSVKGCFTISRDNAKYTVYLQMNSLKPDDSAVYYCDDGRYGDYGYWGQGTQLTVSS | high polyreactivity
18 | QVLLVESGGGLVQAGGSLRLSCSASGITFEYYAMGWYRQAPGKERELVADIDTGGSTNYADSVKGRFTISRDNAKNTVYLQMNSLKPEDTAVYYCAADWSWWDAEDYHFEYDYWGQGTQVTVSS | low polyreactivity
19 | QVLLVESGGGLVQAGGSLRLSGAASGSTFYNYAMGWNRQAPGKERELVASISDDGSTNYADSVKGRFTISRDNAKNTVYLQMNSLKQVDSAVYSCAAVWWLQFGSAWYQMGYWGQGTQVTVSS | low polyreactivity
20 | QVNLVDSGGRLVQAGGSLRLSCAASGRIFYRYAMGWYIQAPGKERELVAAISRRGGSTYYADSVKGRFTISRDNAKNTVYLQMNSLNPEDTAVYYCNVYRSAFSYDSWGQCTQVTVSS | high polyreactivity
21 | QVPLQESGGGLVQAGGSLRLSCAASGTISYAPHMGWYRQAPGKERELVAGITIGGTTYYADSVKGRFTISRDNAKNTVYLQMNSLSPGDTAVYYCAAHSEQYTPFYYWGQGTQVTVSS | low polyreactivity
22 | QVPLVESGGGLVQAGGILRLSSAASGFIFTYYAMGWYRQAPGKERELVAAISASGGSTYYADSVKGRFTISRDYAKNTVYIQLYSLEPEDSSVYYCNKLYQQRAWETFSWGGYWGQGTQVTVSS | high polyreactivity
23 | QVPLVESGGGLVQAGGRLRLSCAASGSTLLNSPMGWYRKAPGKERELVAAISSSGGRTYYPDSVKGRFTISRDNAKNTVYLQMNSLTPEDTEVYYCNKVLGYPKTFGYWGQGTQVSVSS | high polyreactivity
24 | QVPLVESGGGLVQAGGSLRLSCAASGFTFGWYAMGWYRQAPGKERELVAAISSNGGRTSYADSVKGRFTISRDNAKNTVYLQMNSLKPEDTAVYYCNADDRYIWTYWGWTIYDYWGQGTQVTVSS | high polyreactivity
25 | QVPLVESGGGLVQAGGSLRLSCAASGRIFIQNTMGWDSQAPGKERELVAAINRSAGSTYYADSVKGRFTISRDNAKNTVYLQMNSLKTEDTAVYYCAAYASRRYGYWGQVTQVTVSS | high polyreactivity
26 | QVPLVESGGGLVQAGGSLRLSCAASGRIFYNYAMGWYRQAPGKERELVAAISGSGGSTYYADSVKGRFTISRDNAKNTVYLQMNSLKPEDSSVYYCSTSGPQYYSRNFDYWGQGTQVTVSS | low polyreactivity
27 | QVPLVESGGGLVQAGGSLRLSCAASGRLFGYNTMGWYRQAPGKERELVARISYDVDSTYYADSVKGRFTISRDNAKNTVYLQMNSLKPEDTAVYYCNARRSNLGSYIEYFGFDYWGQGTQVTVSS | low polyreactivity
28 | QVPLVESGGGLVQAGGSLRLSCAASGRNYFKYAMGWYRQAPGKERELVATITWRGSSTYYSDSVKGRFTISRDNAKNTVFLQMNSLKPEDTAVYYCAARYLYTDEYWDKFYYWGQGTQVTVSS | high polyreactivity
29 | QVPLVESGGGLVQAGGSLRLSCAASGRTFPSNMGWYRQAPGKERELVAAISWRGGSTNYADSVKGRFTISRDNAKNTVYLQMNSLKPEDTAVYYCNARYNTQRYRFLVQGDYWGQGTQVTVSS | high polyreactivity
30 | QVPLVESGGGLVQAGGSLRLSCAASGSIFGQYAMGWYRQAPGKERELVAAIRDGTGSTYYAVSVKGRFTISRDNAKNTVYVQMNSLKPEDRAVYYCAADYIWTSIVHYEYWGQGTEVTVSS | high polyreactivity
31 | QVPLVESGGGLVQAGGSLRLSCAASGSIFLLYDMGWYRQAPGKERELVAAITWSGGSTYYADSVKGRFTISRDNAMNSVYLQMNSLKPEDTAVYYCAADEPYPTAYEYWGQGTQVTVSS | low polyreactivity
32 | QVPLVESGGRLVQAGGSLRLSCAASGSTIGPYTMGWYRQAPGKERELVATISSGGSTYSADSVKGRFTISRDNEKNTVYLQMISLKPEDTAVYYCAARYRSIYDYWGQGTQVTVSS | low polyreactivity
